Experimental data reported in US20030143232.

Tests used:
[1] = target: recombinant survivin(T34A) (UniProt O15392)
[2] = target: recombinant wild type survivin (unphosphorylated) (UniProt O15392)
Sequence of recombinant wild type survivin (unphosphorylated) (O15392 whole entry, looked up): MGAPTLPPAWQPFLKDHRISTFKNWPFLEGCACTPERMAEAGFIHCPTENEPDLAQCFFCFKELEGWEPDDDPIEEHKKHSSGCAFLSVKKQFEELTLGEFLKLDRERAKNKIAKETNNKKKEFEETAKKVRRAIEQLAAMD

Sequence of recombinant survivin(T34A) (O15392 whole entry T34A): as the sequence (O15392 whole entry, looked up) above, with T34A counted along it

Substance | in vitro kinase assay, 32P autoradiography [1] | in vitro kinase assay, 32P autoradiography [2]
baculovirus-expressed human Cdk2-cyclin E kinase complex | baculovirus-expressed Cdk2-cyclin E did not phosphorylate wild type survivin or survivin(T34A) | baculovirus-expressed Cdk2-cyclin E did not phosphorylate wild type survivin or survivin(T34A)
baculovirus-expressed human p34^cdc2-cyclin B1 kinase complex | substitution of Thr^34→Ala, i.e. survivin(T34A), abolished phosphorylation by p34^cdc2-cyclin B1 | baculovirus-expressed p34^cdc2-cyclin B1 readily phosphorylated recombinant wild type survivin
